Values belong to the molecule of their own block, whether it stands above or below them.
Key:
[1] = system: GFP-14-3-3β; assay: GFP-14-3-3β co-IP with LC-MS/MS, untreated GFP-14-3-3β versus GFP control (14-3-3 interactome); type: binding, human; settings: 3 replicates each
[2] = system: GFP-14-3-3β and its binding proteins; assay: GFP-14-3-3β co-IP with LC-MS/MS label-free quantification, untreated versus PP1c-treated; set-up: species or system human; settings: 3 replicates each
[3] = untreated vs GFP, LFQ intensities
[4] = PP1 vs untreated, LFQ intensities

Difference (log2), PP1 vs untreated [2, 4]: 0.6296 log2
B1: NOP58 (protein, UniProt Q9Y2X3 1-529, looked up)
Nucleolar protein 58: MLVLFETSVGYAIFKVLNEKKLQEVDSLWKEFETPEKANKIVKLKHFEKFQDTAEALAAFTALMEGKINKQLKKVLKKIVKEAHEPLAVADAKLGGVIKEKLNLSCIHSPVVNELMRGIRSQMDGLIPGVEPREMAAMCLGLAHSLSRYRLKFSADKVDTMIVQAISLLDDLDKELNNYIMRCREWYGWHFPELGKIISDNLTYCKCLQKVGDRKNYASAKLSELLPEEVEAEVKAAAEISMGTEVSEEDICNILHLCTQVIEISEYRTQLYEYLQNRMMAIAPNVTVMVGELVGARLIAHAGSLLNLAKHAASTVQILGAEKALFRALKSRRDTPKYGLIYHASLVGQTSPKHKGKISRMLAAKTVLAIRYDAFGEDSSSAMGVENRAKLEARLRTLEDRGIRKISGTGKALAKTEKYEHKSEVKTYDPSGDSTLPTCSKKRKIEQVDKEDEITEKKAKKAKIKVKVEEEEEEKVAEEEETSVKKKKKRGKKKHIKEEPLSEEEPCTSTAIASPEKKKKKKKKRENED
Difference (log2), untreated vs GFP [1, 3]: 1.325 log2

Difference (log2), PP1 vs untreated ([2]; log2 difference, pairwise comparison PP1 vs untreated, label-free quantification): 2.218
B2: DDX20 (protein, UniProt Q9UHI6 1-824, looked up)
Probable ATP-dependent RNA …: MAAAFEASGALAAVATAMPAEHVAVQVPAPEPTPGPVRILRTAQDLSSPRTRTGDVLLAEPADFESLLLSRPVLEGLRAAGFERPSPVQLKAIPLGRCGLDLIVQAKSGTGKTCVFSTIALDSLVLENLSTQILILAPTREIAVQIHSVITAIGIKMEGLECHVFIGGTPLSQDKTRLKKCHIAVGSPGRIKQLIELDYLNPGSIRLFILDEADKLLEEGSFQEQINWIYSSLPASKQMLAVSATYPEFLANALTKYMRDPTFVRLNSSDPSLIGLKQYYKVVNSYPLAHKVFEEKTQHLQELFSRIPFNQALVFSNLHSRAQHLADILSSKGFPAECISGNMNQNQRLDAMAKLKHFHCRVLISTDLTSRGIDAEKVNLVVNLDVPLDWETYMHRIGRAGRFGTLGLTVTYCCRGEEENMMMRIAQKCNINLLPLPDPIPSGLMEECVDWDVEVKAAVHTYGIASVPNQPLKKQIQKIERTLQIQKAHGDHMASSRNNSVSGLSVKSKNNTKQKLPVKSHSECGIIEKATSPKELGCDRQSEEQMKNSVQTPVENSTNSQHQVKEALPVSLPQIPCLSSFKIHQPYTLTFAELVEDYEHYIKEGLEKPVEIIRHYTGPGDQTVNPQNGFVRNKVIEQRVPVLASSSQSGDSESDSDSYSSRTSSQSKGNKSYLEGSSDNQLKDSESTPVDDRISLEQPPNGSDTPNPEKYQESPGIQMKTRLKEGASQRAKQSRRNLPRRSSFRLQTEAQEDDWYDCHREIRLSFSDTYQDYEEYWRAYYRAWQEYYAAASHSYYWNAQRHPSWMAAYHMNTIYLQEMMHSNQ
Difference (log2), untreated vs GFP ([1]; log2 difference, pairwise comparison untreated vs GFP, label-free quantification): -0.1781

Difference (log2), PP1 vs untreated [2, 4]: 0.6094 log2
B3: MMS19 (protein, UniProt Q96T76 2-1030, looked up)
MMS19 nucleotide excision …: AAAAAVEAAAPMGALWGLVHDFVVGQQEGPADQVAADVKSGNYTVLQVVEALGSSLENPEPRTRARAIQLLSQVLLHCHTLLLEKEVVHLILFYENRLKDHHLVIPSVLQGLKALSLCVALPPGLAVSVLKAIFQEVHVQSLPQVDRHTVYNIITNFMRTREEELKSLGADFTFGFIQVMDGEKDPRNLLVAFRIVHDLISRDYSLGPFVEELFEVTSCYFPIDFTPPPNDPHGIQREDLILSLRAVLASTPRFAEFLLPLLIEKVDSEVLSAKLDSLQTLNACCAVYGQKELKDFLPSLWASIRREVFQTASERVEAEGLAALHSLTACLSRSVLRADAEDLLDSFLSNILQDCRHHLCEPDMKLVWPSAKLLQAAAGASARACDSVTSNVLPLLLEQFHKHSQSSQRRTILEMLLGFLKLQQKWSYEDKDQRPLNGFKDQLCSLVFMALTDPSTQLQLVGIRTLTVLGAQPDLLSYEDLELAVGHLYRLSFLKEDSQSCRVAALEASGTLAALYPVAFSSHLVPKLAEELRVGESNLTNGDEPTQCSRHLCCLQALSAVSTHPSIVKETLPLLLQHLWQVNRGNMVAQSSDVIAVCQSLRQMAEKCQQDPESCWYFHQTAIPCLLALAVQASMPEKEPSVLRKVLLEDEVLAAMVSVIGTATTHLSPELAAQSVTHIVPLFLDGNVSFLPENSFPSRFQPFQDGSSGQRRLIALLMAFVCSLPRNVEIPQLNQLMRELLELSCCHSCPFSSTAAAKCFAGLLNKHPAGQQLDEFLQLAVDKVEAGLGSGPCRSQAFTLLLWVTKALVLRYHPLSSCLTARLMGLLSDPELGPAAADGFSLLMSDCTDVLTRAGHAEVRIMFRQRFFTDNVPALVQGFHAAPQDVKPNYLKGLSHVLNRLPKPVLLPELPTLLSLLLEALSCPDCVVQLSTLSCLQPLLLEAPQVMSLHVDTLVTKFLNLSSSPSMAVRIAALQCMHALTRLPTPVLLPYKPQVIRALAKPLDDKKRLVRKEAVSARGEWFLLGSPGS
Difference (log2), untreated vs GFP [1, 3]: 1.425 log2

Difference (log2), PP1 vs untreated [2, 4]: 0.6283 log2
B4: BBX (protein, UniProt Q8WY36 1-941, looked up)
HMG box transcription factor …: MKGSNRNKDHSAEGEGVGKRPKRKCLQWHPLLAKKLLDFSEEEEEEDEEEDIDKVQLLGADGLEQDVGETEDDESPEQRARRPMNAFLLFCKRHRSLVRQEHPRLDNRGATKILADWWAVLDPKEKQKYTDMAKEYKDAFMKANPGYKWCPTTNKPVKSPTPTVNPRKKLWAFPSDSSRDLPSPKKAKTEEMPQLNFGMADPTQMGGLSMLLLAGEHALGTPEVSSGTCRPDVSESPELRQKSPLFQFAEISSSTSHSDASTKQCQTSALFQFAEISSNTSQLGGAEPVKRCGKSALFQLAEMCLASEGMKMEESKLIKAKESDGGRIKELEKGKEEKEIKMEKTDETRLQKEAEFEKSAKENLRDSKELRNFEALQIDDIMAIKMEDPKEIRKEELEEDHKCSHFPDFSYSASSKIIISDVPSRKDHMCHPHGIMIIEDPAALNKPEKLKKKKKKSKMDRHGNDKSTPKKTCKKRQSSESDIESVIYTIEAVAKGDWGIEKLGDTPRKKVRTSSSGKGSILDAKPPKKKVKSREKKMSKEKSSDTTKESRPPDFISISASKNISGETPEGIKAEPLTPMEDALPPSLSGQAKPEDSDCHRKIETCGSRKSERSCKGALYKTLVSEGMLTSLRANVDRGKRSSGKGNSSDHEGCWNEESWTFSQSGTSGSKKFKKTKPKEDCLLGSAKLDEEFEKKFNSLPQYSPVTFDRKCVPVPRKKKKTGNVSSEPTKTSKGPFQSQKKNLFHKIVSKYKHKKEKPNVPEKGSGDKWSNKQLFLDAIHPTEAIFSEDRNTMEPVHKVKNIPSIFNTPEPTTTQEPLVGSQKRKARKTKITHLVRTADGRVSPAGGTLDDKPKEQLQRSLPKATETDCNDKCSHNTEVGETRSSTPEMPAVSAFFSLAALAEVAAMENVHRGQRSTPLTHDGQPKEMPQAPVLISCADQ
Difference (log2), untreated vs GFP [1, 3]: 0.1239 log2

Difference (log2), PP1 vs untreated [2, 4]: 0.6546 log2
B5: DDX3X;DDX3Y (protein, UniProt O00571 2-662, looked up)
ATP-dependent RNA helicase …: SHVAVENALGLDQQFAGLDLNSSDNQSGGSTASKGRYIPPHLRNREATKGFYDKDSSGWSSSKDKDAYSSFGSRSDSRGKSSFFSDRGSGSRGRFDDRGRSDYDGIGSRGDRSGFGKFERGGNSRWCDKSDEDDWSKPLPPSERLEQELFSGGNTGINFEKYDDIPVEATGNNCPPHIESFSDVEMGEIIMGNIELTRYTRPTPVQKHAIPIIKEKRDLMACAQTGSGKTAAFLLPILSQIYSDGPGEALRAMKENGRYGRRKQYPISLVLAPTRELAVQIYEEARKFSYRSRVRPCVVYGGADIGQQIRDLERGCHLLVATPGRLVDMMERGKIGLDFCKYLVLDEADRMLDMGFEPQIRRIVEQDTMPPKGVRHTMMFSATFPKEIQMLARDFLDEYIFLAVGRVGSTSENITQKVVWVEESDKRSFLLDLLNATGKDSLTLVFVETKKGADSLEDFLYHEGYACTSIHGDRSQRDREEALHQFRSGKSPILVATAVAARGLDISNVKHVINFDLPSDIEEYVHRIGRTGRVGNLGLATSFFNERNINITKDLLDLLVEAKQEVPSWLENMAYEHHYKGSSRGRSKSSRFSGGFGARDYRQSSGASSSSFSSSRASSSRSGGGGHGSSRGFGGGGYGGFYNSDGYGGNYNSQGVDWWGN
modifications: or DDX3Y
Difference (log2), untreated vs GFP [1, 3]: 0.1796 log2

Reference: publication PMC7367873, “Dissecting the sequence determinants for dephosphorylation by the catalytic subunits of phosphatases PP1 and PP2A” (Nature Communications, 2020)
